Reference: patent US20180362620A1 (Genentech, published 2018)

B1: humanized 13C6 variant h13C6a expressed in FUT8KO CHO cells (antibody)
heavy: EVQLVESGPALVKPTQTLTLTCTFSGFSLSTSGVGVGWIRQPPGKALEWLALIWWDDDKYYNPSLKSRLTISKDTSKNQVVLTMTNMDPVDTATYYCARRDPFGYDNAMGYWGQGTLVTVSSASTKGPSVFPLAPSSKSTSGGTAALGCLVKDYFPEPVTVSWNSGALTSGVHTFPAVLQSSGLYSLSSVVTVPSSSLGTQTYICNVNHKPSNTKVDKKVEPKSCDKTHTCPPCPAPELLGGPSVFLFPPKPKDTLMISRTPEVTCVVVDVSHEDPEVKFNWYVDGVEVHNAKTKPREEQYNSTYRVVSVLTVLHQDWLNGKEYKCKVSNKALPAPIEKTISKAKGQPREPQVYTLPPSREEMTKNQVSLTCLVKGFYPSDIAVEWESNGQPENNYKTTPPVLDSDGSFFLYSKLTVDKSWQQGNVFSCSVMHEALHNHYTQKSLSLSPGK
light: DIQMTQSPSSLSASVGDRVTITCKASQNVGTAVAWYQQKPGKAPKLLIYSASNRYTGVPSRFSGSGSGTDFTLTISSLQPEDFATYYCQQYSSYPLTFGQGTKVEIKRTVAAPSVFIFPPSDEQLKSGTASVVCLLNNFYPREAKVQWKVDNALQSGNSQESVTEQDSKDSTYSLSSTLTLSKADYEKHKVYACEVTHQGLSSPVTKSFNRGEC
notes: copies: 2 + 2
B2: humanized 13C6 variant h13C6a expressed in CHO cells (antibody)
heavy: EVQLVESGPALVKPTQTLTLTCTFSGFSLSTSGVGVGWIRQPPGKALEWLALIWWDDDKYYNPSLKSRLTISKDTSKNQVVLTMTNMDPVDTATYYCARRDPFGYDNAMGYWGQGTLVTVSSASTKGPSVFPLAPSSKSTSGGTAALGCLVKDYFPEPVTVSWNSGALTSGVHTFPAVLQSSGLYSLSSVVTVPSSSLGTQTYICNVNHKPSNTKVDKKVEPKSCDKTHTCPPCPAPELLGGPSVFLFPPKPKDTLMISRTPEVTCVVVDVSHEDPEVKFNWYVDGVEVHNAKTKPREEQYNSTYRVVSVLTVLHQDWLNGKEYKCKVSNKALPAPIEKTISKAKGQPREPQVYTLPPSREEMTKNQVSLTCLVKGFYPSDIAVEWESNGQPENNYKTTPPVLDSDGSFFLYSKLTVDKSWQQGNVFSCSVMHEALHNHYTQKSLSLSPGK
light: DIQMTQSPSSLSASVGDRVTITCKASQNVGTAVAWYQQKPGKAPKLLIYSASNRYTGVPSRFSGSGSGTDFTLTISSLQPEDFATYYCQQYSSYPLTFGQGTKVEIKRTVAAPSVFIFPPSDEQLKSGTASVVCLLNNFYPREAKVQWKVDNALQSGNSQESVTEQDSKDSTYSLSSTLTLSKADYEKHKVYACEVTHQGLSSPVTKSFNRGEC
notes: copies: 2 + 2
B3: humanized 13C6 variant h13C6i expressed in FUT8KO CHO cells (antibody)
heavy: EVQLVESGPALVKPTQTLTLTCTFSGFSLSTSGVGVGWIRQPPGKALEWLALIWWDDDKYYNPSLKSRLTISKDTSKNQVVLTMTNMDPVDTATYYCARRDPFGYDNAMGYWGQGTLVTVSSASTKGPSVFPLAPSSKSTSGGTAALGCLVKDYFPEPVTVSWNSGALTSGVHTFPAVLQSSGLYSLSSVVTVPSSSLGTQTYICNVNHKPSNTKVDKKVEPKSCDKTHTCPPCPAPELLGGPSVFLFPPKPKDTLMISRTPEVTCVVVDVSHEDPEVKFNWYVDGVEVHNAKTKPREEQYNSTYRVVSVLTVLHQDWLNGKEYKCKVSNKALPAPIEKTISKAKGQPREPQVYTLPPSREEMTKNQVSLTCLVKGFYPSDIAVEWESNGQPENNYKTTPPVLDSDGSFFLYSKLTVDKSWQQGNVFSCSVMHEALHNHYTQKSLSLSPGK
light: DIQMTQSPSSLSASVGDRVTITCKASQNVGTAVAWYQQKPGKSPKLLIYSASNRYTGVPSRFSGSGSGTDFTLTISSLQPEDFATYFCQQYSSYPLTFGQGTKVEIKRTVAAPSVFIFPPSDEQLKSGTASVVCLLNNFYPREAKVQWKVDNALQSGNSQESVTEQDSKDSTYSLSSTLTLSKADYEKHKVYACEVTHQGLSSPVTKSFNRGEC
notes: copies: 2 + 2
B4: humanized 13C6 variant h13C6i expressed in CHO cells (antibody)
heavy: EVQLVESGPALVKPTQTLTLTCTFSGFSLSTSGVGVGWIRQPPGKALEWLALIWWDDDKYYNPSLKSRLTISKDTSKNQVVLTMTNMDPVDTATYYCARRDPFGYDNAMGYWGQGTLVTVSSASTKGPSVFPLAPSSKSTSGGTAALGCLVKDYFPEPVTVSWNSGALTSGVHTFPAVLQSSGLYSLSSVVTVPSSSLGTQTYICNVNHKPSNTKVDKKVEPKSCDKTHTCPPCPAPELLGGPSVFLFPPKPKDTLMISRTPEVTCVVVDVSHEDPEVKFNWYVDGVEVHNAKTKPREEQYNSTYRVVSVLTVLHQDWLNGKEYKCKVSNKALPAPIEKTISKAKGQPREPQVYTLPPSREEMTKNQVSLTCLVKGFYPSDIAVEWESNGQPENNYKTTPPVLDSDGSFFLYSKLTVDKSWQQGNVFSCSVMHEALHNHYTQKSLSLSPGK
light: DIQMTQSPSSLSASVGDRVTITCKASQNVGTAVAWYQQKPGKSPKLLIYSASNRYTGVPSRFSGSGSGTDFTLTISSLQPEDFATYFCQQYSSYPLTFGQGTKVEIKRTVAAPSVFIFPPSDEQLKSGTASVVCLLNNFYPREAKVQWKVDNALQSGNSQESVTEQDSKDSTYSLSSTLTLSKADYEKHKVYACEVTHQGLSSPVTKSFNRGEC
notes: copies: 2 + 2

Key:
[1] = target: recombinant FcγRIIIa (V158) (R&D Systems, cat#4325-FC-050) (UniProt P08637); assay: Biacore binding to recombinant FcγRIIIa (V158), low density
Chain of recombinant FcγRIIIa (V158) (R&D Systems, cat#4325-FC-050) (UniProt P08637) (P08637 17-208 F176V limits assumed): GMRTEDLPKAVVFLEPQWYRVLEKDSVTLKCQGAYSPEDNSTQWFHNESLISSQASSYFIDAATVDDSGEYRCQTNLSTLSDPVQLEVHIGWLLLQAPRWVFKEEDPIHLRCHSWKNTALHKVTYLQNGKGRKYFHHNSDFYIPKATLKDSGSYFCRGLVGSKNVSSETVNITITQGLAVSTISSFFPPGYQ

[2] = target: recombinant FcγRIIIa (V158) (R&D Systems, cat#4325-FC-050) (UniProt P08637); assay: Biacore binding to recombinant FcγRIIIa (V158), high density
[3] = target: T1, recombinant FcγRIIIa (V158) (R&D Systems, cat#4325-FC-050) (UniProt P08637 17-208); assay: Biacore binding to recombinant FcγRIIIa
T1 sequence (P08637 17-208 F176V limits assumed): as above

[4] = target: T1, recombinant FcγRIIIa (V158) (R&D …); assay: Biacore binding to recombinant FcγRIIIa (V158), low density
[5] = target: T1, recombinant FcγRIIIa (V158) (R&D …); assay: Biacore binding to recombinant FcγRIIIa (V158), high density
[6] = target: T1, recombinant FcγRIIIa (V158) (R&D …); assay: Biacore, FcγRIIIa (V158) binding (summary table; equals the 9th table, row 11, column 4)

| Molecule | Kd [1] | Kd [2] | fold improvement of binding against CHO cell expressed material [3] | Kd [4] | Kd [5] | Kd [6] |
| --- | --- | --- | --- | --- | --- | --- |
| Herceptin CHO (antibody) | 82 nM | 67 nM |  |  |  |  |
| B1 |  |  | ~3 fold | 38 nM | 27 nM |  |
| B2 |  |  |  | 117 nM | 113 nM |  |
| B3 |  |  | ~3 fold | 36 nM | 24 nM | 24 nM |
| B4 |  |  |  | 122 nM | 111 nM |  |
